We go through two proteins from article PMC3563542, “Refolding and Enzyme Kinetic Studies on the Ferrochelatase of the Cyanobacterium Synechocystis sp. PCC 6803” (PLoS ONE, 2013).

This series deals with the molecule itself. Description: SEC; native size exclusion chromatography, Sephacryl S-100-HR, buffer B (50 mM Tris pH 8, 0.1 M NaCl, 0.5 M KCl, 20% glycerol, 20 mM Na-cholate, 0.1 mM TCEP) as eluent; monomer separated from higher molecular weight forms.

B1: His-FeCh, recombinant type II ferrochelatase of Synechocystis sp. PCC 6803 with N-terminal His6-tag (enzyme, UniProt P54225 1-387, looked up)
chain: MGRVGVLLLNLGGPEKLEDVRPFLFNLFADPEIIRLPFPWLQKPLAWLISTLRAKKSQANYAEIGGGSPLLQITEAQASALTTRLERLGQDAKVYIGMRYWHPFTEEAVEKIKGDRLQRLVILPLYPHFSISTSGSSFRVLEEMWHNDPSLRQLDYSLIPSWYDHPGYLQAMADLIAQELKKFPNPDQAHIFFSAHGVPQSYVDEAGDPYQAEIEACTRLIMRTLDRPNQYTLAYQSRVGPVEWLKPYTEEALQKLGAEGIDDLLVVPISFVSEHIETLQEIDIEYREIAEEAGIDNFQRVPALNTHPVFIDALAQMVMDSLNDPPCTFETVPHPKKNMKMYPQERWEWGLTTAAEVWNGRLAMLGFIALLVELISGQGPLHFVGLL
notes: Ferrochelatase (hemH) of Synechocystis sp; PCC 6803, GenBank BAA10523.1, amplified from genomic DNA from the start codon to the stop codon; full length with the C-terminal CAB domain; tagged protein 47 kDa; also called full length His-FeCh; not shown: His6, N-terminal, kept
Take B1: the binding result is “binds”.

B2: FeCh, recombinant full-length ferrochelatase of Synechocystis sp. PCC 6803 after removal of the N-terminal His6-tag (enzyme, UniProt P54225 1-387, looked up)
chain: B1 chain
notes: Ferrochelatase (hemH) of Synechocystis sp; PCC 6803, GenBank BAA10523.1, full length with the C-terminal CAB domain; monomer 44 kDa; also called full-length FeCh; source: E. coli, His-FeCh after IMAC, His6-tag removed with thrombin, purified (HisGraviTrap, Sephacryl S-100-HR); not shown: His6, N-terminal, cleaved
As to B2, the binding result is recorded as “binds”.
